Patent US20230181640A1 (SHANGHAI ABELZETA, published 2023)

B1: hBCMA-ECD-Fc (fusion protein of human BCMA extracellular domain Met1-Ala54 and human IgG1 Fc fragment Pro100-Lys330) (Fc fusion, UniProt Q02223 1-54, looked up)
chain: MLQMAGQCSQNEYFDSLLHACIPCQLRCSSNTPPLTCQRYCNASVTNSVKGTNA
notes: range 1-54; also the immunogen; also called soluble extracellular domain of human BCMA; not shown: human IgG1 Fc fragment, Pro100-Lys330

What was measured:
[1] = target: T1, hybridoma antibody 6G10-1D7 (mAb001); test: flow cytometry competition: hBCMA-ECD-Fc against K562-BCMA+ cells for mAb001 at 1 µg/ml
T1 construct: tested as supernatant and purified; also called CP01

[2] = target: T1, hybridoma antibody 6G10-1D7 (mAb001); test: flow cytometry competition: BCMA of K562-BCMA+ supernatant against K562-BCMA+ cells for mAb001 at 1 µg/ml
[3] = target: T2, human BCMA on cells (L-BCMA+, K562-BCMA+, A549-BCMA-1D6) (human, UniProt Q02223 1-184); test: FACS, chimeric antibody supernatant, L-BCMA+ cells
T2 construct: whole, on cells; the cell line of each assay is named under assay; also called L-BCMA-1E6-A4; K562-BCMA-B22D8
T2 sequence (looked up): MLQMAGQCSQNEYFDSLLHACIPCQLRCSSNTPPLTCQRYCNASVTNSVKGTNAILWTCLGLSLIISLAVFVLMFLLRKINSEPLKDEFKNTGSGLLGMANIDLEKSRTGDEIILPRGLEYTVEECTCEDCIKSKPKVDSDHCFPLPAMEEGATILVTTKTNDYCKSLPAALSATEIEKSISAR

[4] = target: B1; test: ELISA, chimeric antibody supernatant

T1 sequence (VH, as listed by the source, chain 1 of 2): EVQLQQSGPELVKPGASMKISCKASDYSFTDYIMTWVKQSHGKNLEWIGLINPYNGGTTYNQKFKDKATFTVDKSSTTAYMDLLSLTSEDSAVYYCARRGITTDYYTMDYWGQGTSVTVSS
T1 sequence (VL, as listed by the source, chain 2 of 2): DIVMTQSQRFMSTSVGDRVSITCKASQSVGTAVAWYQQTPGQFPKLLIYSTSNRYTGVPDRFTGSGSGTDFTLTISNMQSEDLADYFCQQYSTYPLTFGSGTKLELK

B1
IC50 [1]: 0.731 µg/mL | molar ratio at IC50 [1]: 1.7 molar ratio (:1)

B2: BCMA of K562-BCMA+ medium supernatant (soluble BCMA) (receptor, UniProt Q02223 1-54, looked up)
chain: MLQMAGQCSQNEYFDSLLHACIPCQLRCSSNTPPLTCQRYCNASVTNSVKGTNA
IC50 [2]: 0.466 µg/mL | molar ratio at IC50 [2]: 10.4 molar ratio (:1)

B3: chimeric antibody 107A9A4D2VH/VL-1 (antibody, human IgG1, kappa, V domains shown)
VH: EVQLQQSGPVLVKPGASVKMSCKASGYTFTDLYMNWLKQSHGKRLEWIGVINPYNGGTSYNQKFKGKATLTVDKSSSTAYMDLNSLTSEDSAVYYCARGDSIYVMDYWGQGTSFTVSS
VL: ENVLTQSPAIMSASPGEKVTMTCSASSSVSYMHWYQQKSSTSPKLWIYDTSKLSSGVPGRFSGSGSGKSYSLTISSMEAEDVATYYCFQGSGYPLFTFGSGTKLEIKR
notes: IgG1,κ chimeric antibody, HEK 293T supernatant; also called 107A9A4D2VH paired with 107A9A4D2VL-1
FACS (MFI) [3]: 42.5 MFI | ELISA (OD450 nm) [4]: 0.13 OD450
